Measured values: publication doi:10.1101/2020.07.15.204859

Target: T1, S. Typhimurium 14028S HNS (STM14_2116) (Salmonella enterica serovar Typhimurium 14028S), P0A1S2
T1 chain: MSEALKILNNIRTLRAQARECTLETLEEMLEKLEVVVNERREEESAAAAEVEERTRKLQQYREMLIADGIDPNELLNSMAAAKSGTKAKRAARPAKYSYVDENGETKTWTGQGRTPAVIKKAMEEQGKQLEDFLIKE
Assay: SEC
Settings: remark: other sources report otherwise

B1: S. Typhimurium 14028S HNS (STM14_2116), P0A1S2 1-137 (natural protein)
chain: T1 chain
- stoichiometry N: 2
